# Experiment: soluble on expression in E. coli; label from the status in PepcDB or PDB records
row,Sequence,soluble on expression in E. coli
1,MYIPPYKADDQDIVVELNSRFGAETFTVQPTRTGMPVLWVPRERLIEVLTFLRQVPKPYVMLYDLHGVDERLRTHRRGLPSADFSVFYHLMSLERNSDVMIKVALSERDLNLPTATRIWPNANWYEREVWDMYGITFTGHPHLTRMLMPPTWQGHPLRKDYPARATEFDPYSLSAAKQDLEQEALRFKPEDWGMKRHGENEDYMFLNLGPNHPSAHGAFRIILQLDGEEIIDCVPEIGYHHRGAEKMAERQSWHSFIPYTDRIDYLGGVMNNLPYVLSVEKLAGIKVPQRVDVIRIMMAEFFRILNHLLYLGTYIQDVGAMTPVFFTFTDRQRAYKVVEAITGFRLHPAWYRIGGVAHDLPRGWDKLVREFLDWMPKRLDEYETAALKNSILRGRTIGVAQYNTKEALEWGTTGAGLRATGCDFDLRKARPYSGYENFEFEVPLAHNGDAYDRCMVKMGEMRQSLRIIEQCLKNMPEGPYKADHPLTTPPPKERTLQHIETLITHFLQVSWGPVMPANEAFQMIEATKGINSYYLTSDGSTMSYRTRIRTPSFAHLQQIPSVINGSM,not soluble
2,MSLSNHSSDIEVGHSMNLTNHFLVAMPSMKDPYFKRSVIYICEHNQDGAMGLMINAPIDITVGGMLKQVDIEPAYPQSHQENLKKPVFNGGPVSEDRGFILHRPRDHYESSMKMTDDIAVTTSKDILTVLGTEAEPEGYIVALGYSGWSAGQLEVELTENSWLTIEADPELIFNTPVHEKWQKAIQKLGISPAQLSSDAGHEGGSHHHHHH,soluble
3,MANIVITTHWTDGDVLPFIKIGSELRKRGHRVTLITHCYYKNMAKSQGLDFEAWDSPEQHRQMLEDMKEELDPLRNPCALERYKKKYESIEVRLREFKKVIAHCNTTDTVLVAKNRSSVAAYLAAEKLNIPLVCVFMAPSEMLSMVSYEMMLGKLLANELNLLRKELNLAPVKSWLAWQSSPKRQIALWPDWFAEPIEEWPAEVINVGFPLSYNERFDNLPPDLMEDLLGDEPPVVITGGTSKTIRPEFYPLCVETCRLSGRKGILVTRYEELLPKELPDKVKWFRELPLNKIFPYTSAVIHHGGMGTLSGAIAAGVPQLVLPYYLDRPYNALCLKKLGIAEYLPPIKWKPEIMVDALQKITASSFRERCKLFSKKVSLQNTMNEICCLIEETVNNEEFLLKDISLLQTT,not soluble
4,MADYYGLFTSDTRSVSDGESDGERRLRRSRRKRGGGRFRPYSPDYSDDEKTKPTKKNQKRPDKQDRFGMAPPNSTQFLLEDREARADAEFENEQKFEAAERRRVRTMSGSYEHMRPAYWCTIEPATTTADFGSDDNNDLDSTSGESEADREMEREFETDYLEVKRERIQSMTRSQLAAELLERDQDTQVLTRELGSKETENRHLRSLLSAHGISPDEPVTSTTAIVVGQSKSPVVAN,not soluble
5,MIHGIGVDLIEIDRIQALYSKQPKLVERILTKNEQHKFNNFTHEQRKIEFLAGRFATKEAFSKALGTGLGKHVAFNDIDCYNDELGKPKIDYEGFIVHVSISHTEHYAMSQVVLEKSAF,not soluble
6,MGDCDIEGKDGKQYESVLMVSIDQLLDSMKEIGSNCLNNEFNFFKRHICDANKEGMFLFRAARKLRQFLKMNSTGDFDLHLLKVSEGTTILLNCTGQVKGRKPAALGAAQPTKSLEENKSLKEQKKLNDLCFLKRLLQEIKTCWNKILMGTKEH,soluble
7,PFWSCLHNQLWNYREADQNRINRNQLPLYGVEGRFERMNQHPNAGSHSFSIGVTEVLNSNLLIELRADDIEYVYQRSPGKIISVIIPTFEALTQFGVATITTQNTGEVEASYSLTFDCSTGVTLMEEQYFIIKPKETSIRSFKIYPTTNQAAKYTCSAILKDSDFSEVDRAECQFSTMATVLDNGSQITPFQPPKSSINDFFESIESIGKKLWEGLRDFITGKACRRKCSSFFDFSCHIQYIC,not soluble
8,MGSDKIHHHHHHMSTEKIFIIGLPRTATTSVCLAMLEQGYKTAHNAYTQDSFSQAQVLADTPIFCDYQTLDKDFPNSRFIHLTRAPELWLPSIKQLLQRMLVNLQRTDGGFNPHIKRCYSETFSPLTEENINSDEFLLDCYTRHQQGITEHFQDRPQDLLTIDVGDEGSYLAMLSFLNIEKEKAREGGFKQINIGGKVRAWQHLNNPLKVESTNKGRIDKVLY,not soluble
